Reference: patent publication US20160194391A1
Each block holds one binder with its values, some of them ahead of it.

What was measured:
[1] = biological target: human dimeric IL-23 (eBiosciences 34-8239) (human) (UniProt P29460)
[2] = biological target: 3×FLAG-IL-6 (human); experiment: SPR, 3×FLAG-IL-6 captured by anti-FLAG M2 on protein G, scFv-PEG as analyte; material refolded by dialysis from urea; refolded by dialysis from urea
[3] = biological target: 3×FLAG-IL-6 (human); experiment: SPR, 3×FLAG-IL-6 captured by anti-FLAG M2 on protein G, scFv-PEG as analyte; material refolded by dialysis from urea
[4] = biological target: human IL-6 (human) (UniProt P05231); experiment: cell-based or functional assay
[5] = biological target: 3×FLAG-IL-6 (human); experiment: SPR, 3×FLAG-IL-6 captured by anti-FLAG M2 on protein G, scFv-PEG as analyte; material refolded by rapid dilution from SDS; refolded by rapid dilution from SDS
[6] = biological target: human IL-6 (human) (UniProt P05231)

Chain of 3×FLAG-IL-6 (human) (chain, as listed by the source limits assumed): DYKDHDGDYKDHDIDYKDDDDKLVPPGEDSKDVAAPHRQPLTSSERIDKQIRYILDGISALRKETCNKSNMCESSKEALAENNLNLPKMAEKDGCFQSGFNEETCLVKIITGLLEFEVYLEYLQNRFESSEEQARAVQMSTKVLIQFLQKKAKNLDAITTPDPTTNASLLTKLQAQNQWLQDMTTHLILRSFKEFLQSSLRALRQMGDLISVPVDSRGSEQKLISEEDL
Chain of human IL-6 (human) (P05231 30-212 limits assumed): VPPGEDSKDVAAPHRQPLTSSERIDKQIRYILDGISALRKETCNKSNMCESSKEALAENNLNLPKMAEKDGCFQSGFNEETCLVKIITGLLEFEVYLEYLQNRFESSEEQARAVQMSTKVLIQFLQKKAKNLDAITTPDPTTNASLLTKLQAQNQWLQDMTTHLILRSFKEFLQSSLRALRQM
Chain of human dimeric IL-23 (eBiosciences 34-8239) (human) (P29460 23-328 limits assumed, chain 1 of 2): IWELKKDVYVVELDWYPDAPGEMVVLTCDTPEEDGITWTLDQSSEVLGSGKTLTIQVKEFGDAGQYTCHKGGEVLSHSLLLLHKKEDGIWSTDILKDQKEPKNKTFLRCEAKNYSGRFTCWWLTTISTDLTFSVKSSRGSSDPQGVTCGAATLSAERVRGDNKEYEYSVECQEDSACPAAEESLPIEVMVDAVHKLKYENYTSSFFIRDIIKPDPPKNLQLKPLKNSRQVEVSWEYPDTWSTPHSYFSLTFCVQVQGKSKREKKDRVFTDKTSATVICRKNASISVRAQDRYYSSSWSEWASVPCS
Chain of human dimeric IL-23 (eBiosciences 34-8239) (human) (Q9NPF7 20-189 limits assumed, chain 2 of 2, further chain): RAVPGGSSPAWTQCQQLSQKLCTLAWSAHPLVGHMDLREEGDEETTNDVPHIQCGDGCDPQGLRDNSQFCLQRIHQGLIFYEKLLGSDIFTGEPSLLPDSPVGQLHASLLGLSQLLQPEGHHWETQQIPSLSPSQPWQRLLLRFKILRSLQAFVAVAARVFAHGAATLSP

IC50 (read off the curve) (IL-17 from mouse splenocytes, OD450) [1]: 0.4 ng/mL
B1: 45G5 humanized scFv (mammalian expressed) (scFv)
scFv: DIQLTQSPSFLSASVGDRVTITCQSSQSIYNNNLLSWYQQKPGKAPKLLIYFASTLASGVPSRFSGSGSGTEFTLTISSLQPEDFATYYCLGGYDDDADTAFGGGTKVEIKGGGGSGGGGSGGGGSGGGGSEVQLVESGGGLVQPGGSLRLSCTVSGFSLSVYPINWVRQAPGKGLEWVGIINDVDDTAYSAWAKGRFTISRDNSKNTLYLQMNSLRAEDTAVYYCARGYLSYAYAGDAFDPWGQGTLVTVSSGPPPPHHHHHH

kon [2]: 507000 M⁻¹ s⁻¹
Kd [3]: 0.193 nM
koff [3]: 9.78e-05 s⁻¹
EC50, IL-6 neutralization; folded by dialysis from urea [4]: 0.116 ng/mL
EC50 of the product; folded by rapid dilution from SDS [4]: 0.256 ng/mL
EC50 of the product; folded by rapid dilution from urea [4]: 0.138 ng/mL
EC50 of the product; folded from guanidine [4]: 0.15 ng/mL
Kd [5]: 0.319 nM
koff [5]: 0.000104 s⁻¹
kon [5]: 326000 M⁻¹ s⁻¹
B2: 28D2c-PEG (scFv)
scFv: MAHHHHHHPPPPAAADIQLTQSPSFLSASVGDRVTITCQASEDLFSSLAWYQQKPGKAPKLLIYSASTLASGVPSRFSGSGSGTDFTLTISSLQPEDFATYYCLGLYYYLTPDPIYGFGGGTKVEIKGGGGSGGGGSGGGGSGGGGSEVQLVESGGGLVQPGGSLRLSCTVSGLSLSKNAIAWVRQAPGKGLEWVGIIYAGGATTYASWAKGRFTISRDNSKNTLYLQLNSLRAEDTAVYYCAREYAGDSYYTGYTQLDLWGQGTLVTVSSGM
modifications: C-terminal azidohomoalanine (Aha) conjugated to 30 kDa linear PEG alkyne

IC50 (read off the curve) (B9 proliferation, OD570-600) [6]: 0.03 ng/mL
B3: 28D2-C Aha (scFv)
scFv: MAHHHHHHPPPPAAADIQLTQSPSFLSASVGDRVTITCQASEDLFSSLAWYQQKPGKAPKLLIYSASTLASGVPSRFSGSGSGTDFTLTISSLQPEDFATYYCLGLYYYLTPDPIYGFGGGTKVEIKGGGGSGGGGSGGGGSGGGGSEVQLVESGGGLVQPGGSLRLSCTVSGLSLSKNAIAWVRQAPGKGLEWVGIIYAGGATTYASWAKGRFTISRDNSKNTLYLQLNSLRAEDTAVYYCAREYAGDSYYTGYTQLDLWGQGTLVTVSSGM
modifications: azidohomoalanine (Aha) in place of the single Met, at the C terminus

IC50 (read off the curve) (B9 proliferation, OD570-600) [6]: 0.03 ng/mL
B4: 28D2 N-Aha (scFv)
scFv: MEDIQLTQSPSFLSASVGDRVTITCQASEDLFSSLAWYQQKPGKAPKLLIYSASTLASGVPSRFSGSGSGTDFTLTISSLQPEDFATYYCLGLYYYLTPDPIYGFGGGTKVEIKGGGGSGGGGSGGGGSGGGGSEVQLVESGGGLVQPGGSLRLSCTVSGLSLSKNAIAWVRQAPGKGLEWVGIIYAGGATTYASWAKGRFTISRDNSKNTLYLQLNSLRAEDTAVYYCAREYAGDSYYTGYTQLDLWGQGTLVTVSSGPPPPPHHHHHH
modifications: azidohomoalanine (Aha) in place of the single Met, at the N terminus

IC50 (read off the curve) (B9 proliferation, OD570-600) [6]: 0.03 ng/mL
B5: 28D2-L Aha (scFv)
scFv: MADIQLTQSPSFLSASVGDRVTITCQASEDLFSSLAWYQQKPGKAPKLLIYSASTLASGVPSRFSGSGSGTDFTLTISSLQPEDFATYYCLGLYYYLTPDPIYGFGGGTKVEIKGGGGSGMGGSGGGGSGGGGSEVQLVESGGGLVQPGGSLRLSCTVSGLSLSKNAIAWVRQAPGKGLEWVGIIYAGGATTYASWAKGRFTISRDNSKNTLYLQLNSLRAEDTAVYYCAREYAGDSYYTGYTQLDLWGQGTLVTVSSGPPPPPHHHHHH
modifications: azidohomoalanine (Aha) in place of a single Met in the Gly/Ser linker between VL and VH
